Experimental data published in US20180155407A1 (Sanofi, published 2018).
Numbered stars: 1 amine (or outer) side, 2 acyl side, 3 side chain; on linkers, the order of the positions; unused ones are H or OH. Square brackets hold non-standard residues; d marks the D form. Side chains are listed from the residue outwards. Ends that are not written are not given here. * marks the point of attachment. γGlu = O=C(O)[C@H](CCC(=O)[*:2])N[*:1]; Palmitoyl = CCCCCCCCCCCCCCCC(=O)*; Aib = CC(C)(N)C(=O)O

B1: SEQ ID NO: 10 (peptide)
peptide: H[Aib]QGTFTSDLSKLK([γGlu-γGlu-Palmitoyl])EEQRQ[Aib]EFIEWLKA[dA]GPPS[Aib]KPPPK-NH2
modifications: N-terminus assumed
SMILES: CCCCCCCCCCCCCCCC(=O)N[C@@H](CCC(=O)N[C@@H](CCC(=O)NCCCC[C@H](NC(=O)[C@H](CC(C)C)NC(=O)[C@H](CCCCN)NC(=O)[C@H](CO)NC(=O)[C@H](CC(C)C)NC(=O)[C@H](CC(=O)O)NC(=O)[C@H](CO)NC(=O)[C@@H](NC(=O)[C@H](Cc1ccccc1)NC(=O)[C@@H](NC(=O)CNC(=O)[C@H](CCC(N)=O)NC(=O)C(C)(C)NC(=O)[C@@H](N)Cc1c[nH]cn1)[C@@H](C)O)[C@@H](C)O)C(=O)N[C@@H](CCC(=O)O)C(=O)N[C@@H](CCC(=O)O)C(=O)N[C@@H](CCC(N)=O)C(=O)N[C@@H](CCCNC(=N)N)C(=O)N[C@@H](CCC(N)=O)C(=O)NC(C)(C)C(=O)N[C@@H](CCC(=O)O)C(=O)N[C@@H](Cc1ccccc1)C(=O)N[C@H](C(=O)N[C@@H](CCC(=O)O)C(=O)N[C@@H](Cc1c[nH]c2ccccc12)C(=O)N[C@@H](CC(C)C)C(=O)N[C@@H](CCCCN)C(=O)N[C@@H](C)C(=O)N[C@H](C)C(=O)NCC(=O)N1CCC[C@H]1C(=O)N1CCC[C@H]1C(=O)N[C@@H](CO)C(=O)NC(C)(C)C(=O)N[C@@H](CCCCN)C(=O)N1CCC[C@H]1C(=O)N1CCC[C@H]1C(=O)N1CCC[C@H]1C(=O)N[C@@H](CCCCN)C(N)=O)[C@@H](C)CC)C(=O)O)C(=O)O
B2: SEQ ID NO: 11 (peptide)
peptide: H[Aib]QGTFTSDLSKLK([γGlu-γGlu-Palmitoyl])EEQRQ[Aib]EFIEWLKA[dA]GHPS[Aib]KPPPK-NH2
modifications: N-terminus assumed
SMILES: CCCCCCCCCCCCCCCC(=O)N[C@@H](CCC(=O)N[C@@H](CCC(=O)NCCCC[C@H](NC(=O)[C@H](CC(C)C)NC(=O)[C@H](CCCCN)NC(=O)[C@H](CO)NC(=O)[C@H](CC(C)C)NC(=O)[C@H](CC(=O)O)NC(=O)[C@H](CO)NC(=O)[C@@H](NC(=O)[C@H](Cc1ccccc1)NC(=O)[C@@H](NC(=O)CNC(=O)[C@H](CCC(N)=O)NC(=O)C(C)(C)NC(=O)[C@@H](N)Cc1c[nH]cn1)[C@@H](C)O)[C@@H](C)O)C(=O)N[C@@H](CCC(=O)O)C(=O)N[C@@H](CCC(=O)O)C(=O)N[C@@H](CCC(N)=O)C(=O)N[C@@H](CCCNC(=N)N)C(=O)N[C@@H](CCC(N)=O)C(=O)NC(C)(C)C(=O)N[C@@H](CCC(=O)O)C(=O)N[C@@H](Cc1ccccc1)C(=O)N[C@H](C(=O)N[C@@H](CCC(=O)O)C(=O)N[C@@H](Cc1c[nH]c2ccccc12)C(=O)N[C@@H](CC(C)C)C(=O)N[C@@H](CCCCN)C(=O)N[C@@H](C)C(=O)N[C@H](C)C(=O)NCC(=O)N[C@@H](Cc1c[nH]cn1)C(=O)N1CCC[C@H]1C(=O)N[C@@H](CO)C(=O)NC(C)(C)C(=O)N[C@@H](CCCCN)C(=O)N1CCC[C@H]1C(=O)N1CCC[C@H]1C(=O)N1CCC[C@H]1C(=O)N[C@@H](CCCCN)C(N)=O)[C@@H](C)CC)C(=O)O)C(=O)O
B3: SEQ ID NO: 8 (peptide)
peptide: H[Aib]QGTFTSDLSKLK([γGlu-γGlu-Palmitoyl])EEQRQ[Aib]EFIEWLKAGGHPS[Aib]KPPPK-NH2
modifications: N-terminus assumed
SMILES: CCCCCCCCCCCCCCCC(=O)N[C@@H](CCC(=O)N[C@@H](CCC(=O)NCCCC[C@H](NC(=O)[C@H](CC(C)C)NC(=O)[C@H](CCCCN)NC(=O)[C@H](CO)NC(=O)[C@H](CC(C)C)NC(=O)[C@H](CC(=O)O)NC(=O)[C@H](CO)NC(=O)[C@@H](NC(=O)[C@H](Cc1ccccc1)NC(=O)[C@@H](NC(=O)CNC(=O)[C@H](CCC(N)=O)NC(=O)C(C)(C)NC(=O)[C@@H](N)Cc1c[nH]cn1)[C@@H](C)O)[C@@H](C)O)C(=O)N[C@@H](CCC(=O)O)C(=O)N[C@@H](CCC(=O)O)C(=O)N[C@@H](CCC(N)=O)C(=O)N[C@@H](CCCNC(=N)N)C(=O)N[C@@H](CCC(N)=O)C(=O)NC(C)(C)C(=O)N[C@@H](CCC(=O)O)C(=O)N[C@@H](Cc1ccccc1)C(=O)N[C@H](C(=O)N[C@@H](CCC(=O)O)C(=O)N[C@@H](Cc1c[nH]c2ccccc12)C(=O)N[C@@H](CC(C)C)C(=O)N[C@@H](CCCCN)C(=O)N[C@@H](C)C(=O)NCC(=O)NCC(=O)N[C@@H](Cc1c[nH]cn1)C(=O)N1CCC[C@H]1C(=O)N[C@@H](CO)C(=O)NC(C)(C)C(=O)N[C@@H](CCCCN)C(=O)N1CCC[C@H]1C(=O)N1CCC[C@H]1C(=O)N1CCC[C@H]1C(=O)N[C@@H](CCCCN)C(N)=O)[C@@H](C)CC)C(=O)O)C(=O)O
B4: SEQ ID NO: 9 (peptide)
peptide: H[Aib]QGTFTSDLSKLK([γGlu-γGlu-Palmitoyl])EEQRQ[Aib]EFIEWLKAGGPPS[Aib]KPPPK-NH2
modifications: N-terminus assumed
SMILES: CCCCCCCCCCCCCCCC(=O)N[C@@H](CCC(=O)N[C@@H](CCC(=O)NCCCC[C@H](NC(=O)[C@H](CC(C)C)NC(=O)[C@H](CCCCN)NC(=O)[C@H](CO)NC(=O)[C@H](CC(C)C)NC(=O)[C@H](CC(=O)O)NC(=O)[C@H](CO)NC(=O)[C@@H](NC(=O)[C@H](Cc1ccccc1)NC(=O)[C@@H](NC(=O)CNC(=O)[C@H](CCC(N)=O)NC(=O)C(C)(C)NC(=O)[C@@H](N)Cc1c[nH]cn1)[C@@H](C)O)[C@@H](C)O)C(=O)N[C@@H](CCC(=O)O)C(=O)N[C@@H](CCC(=O)O)C(=O)N[C@@H](CCC(N)=O)C(=O)N[C@@H](CCCNC(=N)N)C(=O)N[C@@H](CCC(N)=O)C(=O)NC(C)(C)C(=O)N[C@@H](CCC(=O)O)C(=O)N[C@@H](Cc1ccccc1)C(=O)N[C@H](C(=O)N[C@@H](CCC(=O)O)C(=O)N[C@@H](Cc1c[nH]c2ccccc12)C(=O)N[C@@H](CC(C)C)C(=O)N[C@@H](CCCCN)C(=O)N[C@@H](C)C(=O)NCC(=O)NCC(=O)N1CCC[C@H]1C(=O)N1CCC[C@H]1C(=O)N[C@@H](CO)C(=O)NC(C)(C)C(=O)N[C@@H](CCCCN)C(=O)N1CCC[C@H]1C(=O)N1CCC[C@H]1C(=O)N1CCC[C@H]1C(=O)N[C@@H](CCCCN)C(N)=O)[C@@H](C)CC)C(=O)O)C(=O)O

Assays:
Assay in all cases: cell-based or functional assay
human glucagon receptor = human glucagon receptor (human, UniProt P47871 26-477)
Chain of human glucagon receptor (P47871 26-477): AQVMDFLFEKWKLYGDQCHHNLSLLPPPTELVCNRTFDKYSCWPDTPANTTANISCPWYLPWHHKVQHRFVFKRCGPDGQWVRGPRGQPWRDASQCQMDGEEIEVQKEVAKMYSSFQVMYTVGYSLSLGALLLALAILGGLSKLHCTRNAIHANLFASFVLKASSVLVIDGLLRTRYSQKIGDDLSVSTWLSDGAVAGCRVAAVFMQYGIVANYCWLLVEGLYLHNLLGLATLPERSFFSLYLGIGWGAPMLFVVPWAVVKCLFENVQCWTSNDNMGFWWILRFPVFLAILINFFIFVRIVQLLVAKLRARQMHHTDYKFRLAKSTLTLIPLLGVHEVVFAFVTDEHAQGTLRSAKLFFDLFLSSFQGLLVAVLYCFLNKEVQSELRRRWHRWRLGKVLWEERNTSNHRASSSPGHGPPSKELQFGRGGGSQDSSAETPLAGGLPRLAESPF

human GIP receptor = biological target: T1, human GIP receptor (human, UniProt P48546 22-466)
T1 sequence (looked up): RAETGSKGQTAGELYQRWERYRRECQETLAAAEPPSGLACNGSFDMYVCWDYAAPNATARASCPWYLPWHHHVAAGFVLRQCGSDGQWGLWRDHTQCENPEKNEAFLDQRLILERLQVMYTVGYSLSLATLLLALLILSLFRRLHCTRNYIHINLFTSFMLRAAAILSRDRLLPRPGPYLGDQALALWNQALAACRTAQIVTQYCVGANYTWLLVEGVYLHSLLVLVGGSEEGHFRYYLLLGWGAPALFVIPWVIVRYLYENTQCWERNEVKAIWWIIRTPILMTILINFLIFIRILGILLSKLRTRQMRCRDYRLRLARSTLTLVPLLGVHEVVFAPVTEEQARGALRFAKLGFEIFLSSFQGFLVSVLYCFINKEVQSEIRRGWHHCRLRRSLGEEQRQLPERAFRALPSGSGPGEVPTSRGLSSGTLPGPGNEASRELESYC

human GLP-1 receptor = human GLP-1 receptor (human, UniProt P43220 24-463)

Binder	EC50 hGlucagon R (cAMP formation) (human glucagon receptor) [pM]	EC50 hGIP R (cAMP formation) (human GIP receptor) [pM]	EC50 hGLP-1R (cAMP formation) (human GLP-1 receptor) [pM]
B1	26.1	5.4	2.4
B2	22.4	3.5	2.3
B3	32.6	5.6	2.2
B4	24.7	5.6	2.6
